Measurements: article PMC4777826, “Crystal Structure of the CTP1L Endolysin Reveals How Its Activity Is Regulated by a Secondary Translation Product*^([image sbox.jpg])” (The Journal of Biological Chemistry, 2015)

Key:
[1] = target: CTP1L endolysin K190S/G191S, ribosomal binding site knock-out (RBSKO) (bacteriophage ΦCTP1); experiment: native MS; CBDHis titrated to 10 μM full-length CTP1L RBSKO at molar ratios 1:1, 1:2, 1:3 and 1:6 (full-length:CBDHis), 150 mM ammonium acetate pH 7.4; ratios of species from simulated peaks, three measurements
[2] = target: CBDHis, CTP1L(195-274) with a C-terminal His tag (bacteriophage ΦCTP1); experiment: native MS; nano-ESI of each purified sample by itself (wild-type gene products, CBDHis, RBSKO mutants), 150 mM ammonium acetate pH 7.4
[3] = target: CD27L endolysin RBSKO mutant (E181S/G182S) (bacteriophage (targets Clostridium difficile)) (UniProt B6SBV8); experiment: as above
[4] = target: CTP1L endolysin, full-length (wild type) (bacteriophage ΦCTP1); experiment: as above
[5] = target: CTP1L endolysin, full-length (wild type) (bacteriophage ΦCTP1); experiment: native MS; nano-ESI of the sample made from the codon-optimised CTP1L gene with the silent C→G back mutation (less truncated CBD made), 150 mM ammonium acetate pH 7.4
[6] = target: truncated C-terminal cell wall binding domain of CTP1L (secondary translation product) (bacteriophage ΦCTP1); experiment: native MS; nano-ESI of each purified sample by itself (wild-type gene products, CBDHis, RBSKO mutants), 150 mM ammonium acetate pH 7.4
[7] = target: the molecule itself; experiment: as above

Molecule: CBDHis, CTP1L(195-274) with a C-terminal His tag (domain or fragment)
- ratio of species, 1:1 heterodimer (full-length:CBDHis 1:1) (ratio (total 1.0)) [1]: 0.26
- ratio of species, 1:1 heterodimer (full-length:CBDHis 1:2) (ratio (total 1.0)) [1]: 0.29
- ratio of species, 1:1 heterodimer (full-length:CBDHis 1:3) (ratio (total 1.0)) [1]: 0.27
- ratio of species, 1:1 heterodimer (full-length:CBDHis 1:6) (ratio (total 1.0)) [1]: 0.31
- ratio of species, 1 FLCTP1L: 3 CBDHis heterotetramer (full-length:CBDHis 1:1) (ratio (total 1.0)) [1]: 0.09
- ratio of species, 1 FLCTP1L: 3 CBDHis heterotetramer (full-length:CBDHis 1:2) (ratio (total 1.0)) [1]: 0.19
- ratio of species, 1 FLCTP1L: 3 CBDHis heterotetramer (full-length:CBDHis 1:3) (ratio (total 1.0)) [1]: 0.27
- ratio of species, 1 FLCTP1L: 3 CBDHis heterotetramer (full-length:CBDHis 1:6) (ratio (total 1.0)) [1]: 0.38
- ratio of species, 2 FLCTP1L: 2 CBDHis heterotetramer (full-length:CBDHis 1:1) (ratio (total 1.0)) [1]: 0.3
- ratio of species, 2 FLCTP1L: 2 CBDHis heterotetramer (full-length:CBDHis 1:2) (ratio (total 1.0)) [1]: 0.32
- ratio of species, 2 FLCTP1L: 2 CBDHis heterotetramer (full-length:CBDHis 1:3) (ratio (total 1.0)) [1]: 0.26
- ratio of species, 2 FLCTP1L: 2 CBDHis heterotetramer (full-length:CBDHis 1:6) (ratio (total 1.0)) [1]: 0.17
- ratio of species, free FLCTP1L monomer (full-length:CBDHis 1:1) (ratio (total 1.0)) [1]: 0.4
- ratio of species, free FLCTP1L monomer (full-length:CBDHis 1:2) (ratio (total 1.0)) [1]: 0.2
- ratio of species, free FLCTP1L monomer (full-length:CBDHis 1:3) (ratio (total 1.0)) [1]: 0.2
- ratio of species, free FLCTP1L monomer (full-length:CBDHis 1:6) (ratio (total 1.0)) [1]: 0.14
- stoichiometry N [2]: 2

Molecule: CD27L endolysin RBSKO mutant (E181S/G182S) (from UniProt B6SBV8 1-270) (enzyme)
- stoichiometry N [3]: 2

Molecule: truncated C-terminal cell wall binding domain of CTP1L (secondary translation product)
- ratio of species, free FLCTP1L monomer (wild-type sample) (ratio (total 1.0)) [4]: 0.03

Molecule: truncated C-terminal cell wall binding domain of CTP1L (secondary translation product) (domain or fragment)
- ratio of species, 1:1 heterodimer (C→G sample) (ratio (total 1.0)) [5]: 0.09
- ratio of species, 2 FLCTP1L: 2 CBD heterotetramer (C→G sample) (ratio (total 1.0)) [5]: 0.62
- ratio of species, free FLCTP1L monomer (C→G sample) (ratio (total 1.0)) [5]: 0.28
- stoichiometry N [6]: 4
- ratio of species, 1:1 heterodimer (wild-type sample) (ratio (total 1.0)) [4]: 0.12
- ratio of species, 1 FLCTP1L: 3 CBD heterotetramer (wild-type sample) (ratio (total 1.0)) [4]: 0.14
- ratio of species, 2 FLCTP1L: 2 CBD heterotetramer (wild-type sample) (ratio (total 1.0)) [4]: 0.72

B1: CD27L endolysin, full-length (wild type) (enzyme, UniProt B6SBV8 1-270, looked up)
chain: MKICITVGHSILKSGACTSADGVVNEYQYNKSLAPVLADTFRKEGHKVDVIICPEKQFKTKNEEKSYKIPRVNSGGYDLLIELHLNASNGQGKGSEVLYYSNKGLEYATRICDKLGTVFKNRGAKLDKRLYILNSSKPTAVLIESFFCDNKEDYDKAKKLGHEGIAKLIVEGVLNKNINNEGVKQMYKHTIVYDGEVDKISATVVGWGYNDGKILICDIKDYVPGQTQNLYVVGGGACEKISSITKEKFIMIKGNDRFDTLYKALDFINR
notes: CD27L endolysin, a bacteriophage endolysin that targets Clostridium difficile; The wild-type sample also holds the truncated CBD; also called FLCD27L; source: E. coli BL21(DE3), pET15b, purified (Ni-NTA)
- stoichiometry N [7]: 2
